Experimental data from patent US20250011804A1 (PIONEER HI BRED INTERNATIONAL, published 2025).

B1: Zmm28 transcription factor (other)
chain: MGRGPVQLRRIENKINRQVTFSKRRNGLLKKAHEISVLCDAEVALIVFSTKGKLYEYSSHSSMEGILERYQRYSFEERAVLNPSIEDQANWGDEYVRLKSKLDALQKSQRQLLGEQLSSLTIKELQQLEQQLDSSLKHIRSRKNQLMFDSISALQKKEKALTDQNGVLQKFMEAEKEKNKALMNAQLREQQNGASTSSPSLSPPIVPDSMPTLNIGPCQHRGAAESESEPSPAPAQANRGNLPPWMLRTVK
notes: MADS-box transcription factor; also called Zm00001d022088
B2: ZmSFT-LIKE (other)
chain: MGSVLLPTLRLKSEVDAAIRDTLDKVLVLRFGRATDATCLHLDDILDKSSWDISKFAMVALVDMDSEEIQVYIDYFDITLVPATIFFFNAHHMKMDSGTPDHTKWIGSFSSKQDFIDVVEAIFRGAMKGKLIVSCPLPPERIPRFQLLFKDV
notes: Tested as prey fusions; also called ZmSFT-like - Zea mays mRNA splicing factor thioredoxin-like U5 snRNP; GRMZM2G086779
B3: ZmMADS7-LIKE (other)
chain: MGRGRVELKRIENKINRQVTFAKRRNGLLKKAYELSVLCDAEVALIVFSNRGKLYEFCSGPSITRTLERYEKNSYAGPDTAVQNKENELVQNSRNEYLKLKAKVDNLQRTQRNLLGEDLGSLGVKELDQLEKQIDSSLSHIRSTRTQHMLDQLTDLQRREQMMCEANKCLRRKLEETSNQVHGQVWEHGANLLLGYERHSSPQQAPSHVGNGLFFHPLEAAAEPTLQIGFAPEHMNNFMPAWLP
notes: Tested as prey fusions; also called zmm7 - Zea mays MADS7; GRMZM2G097059
B4: ZmZAG2 (other)
chain: MGRGRIEIKRIENNTSRQVTFCKRRNGLLKKAYELSVLCDAEVALIVFSSRGRLYEYANNSVKATIERYKKAHTVGSSSGPPLLEHNAQQFYQQESAKLRNQIQMLQNTNRHLVGDSVGNLSLKELKQLESRLEKGISKIRARKSELLAAEISYMAKRETELQNDHMTLRTKIEEGEQQLQQVTVARSVAAAAAAATNLELNPFLEMDTKCFFTGGPFATLDMKCFLPGSLQQMLEAQQRQMLATELNLGYQLAPPGSDAADNNPHHQF
notes: Tested as prey fusion (GAL4 AD in Y2H/HY1H, nGFP with 30x glutamine linker in BiFC); also called zag2 - Zea AGAMOUS homolog2; GRMZM2G160687
B5: ZmMADS24 (other)
chain: MGRGKVVLQRIENKISRQVTFAKRRNGLLKKAYELSILCDAEVALVLFSHAGRLYQFSSSSNLLKTLERYQRYIYASADAAVPSSDQMQNNYQEYVKLKARVEVLQHSQRNLLGEDLALLSPSELDQLENQVDKTLKQIRSRKTQVLLDELCDLKRKEQMLQDANRVLKRKLGEFEAEAASPPQLAWQGEGGMLSHDPPQPEHFFQALESNPCLQPTYHTMDMNQQPVPAPGGCYPAWMS
notes: Tested as prey fusions; also called zmm24 - Zea mays MADS24; GRMZM2G087095
B6: ZmSF2 (other)
chain: MTRRNGCTIYVGNLPGDIREREVDDLFYKGRQCGLRMYGRIVEIDLKIPPRPPGFAFVEFEDARDAEDAIYGRDGYNFDGHRLRVELAHGGRGTSSFDRSSSYSSAGQRGASKRSDYRVMVTGLPSSASWQDLKDHMRRAGDVCFTDVYREAGATIGIADYTNYEDMKHAIRKLDDSEFRNAFSRTYVRVREYDARRSRSRSRGRNRSKSRSRSHSHSYSRSRSCSYSKSRSPRSRSASESKSPVKARSPSRSPPVSPRRDKSASRSPARSKSLPRSCSPAKSE
notes: Tested as prey fusions; also called Zea mays splicing factor 2; GRMZM2G170365
B7: ZmMADSL6 (other)
chain: MGRGRVELKRIENKINRQVTFAKRRNGLLKKAYELSVLCDAEVALIIFSNRGKLYEFSSTQSMPKTLEKYQKCSFAGPETALQNRENEQLKSSRNEYLKLKARVDNLQRTQRNLLGEDLESLGIKELEHLEKQLDSSLKHIRSTRTQHMVDQLTELQKKEQMFCEANKCLRRRLEESNQVIWQHAWEQSERHSEVQPQQLNGNNFFHPLDGAGEPTLQIGYPSEALTSSCMTTFLPPWLP
notes: positive control of the BiFC assay (full length); Tested as prey fusions; also called WT ZMMADSL6; full length ZmMADSL6

Molecular target: the molecule itself
Assay: BiFC, maize protoplasts, flow cytometry
Method: (§1) Potential interaction partners of ZMM28 were further tested in vivo with a bimolecular fluorescence complementation (BiFC) assay. Following transfection of maize protoplasts, fluorescence was measured indicating interaction between nGFP-Prey and cGFP-ZMM28 (Bait). As BiFC is prone to false-positive self-assembly independent of protein-protein interaction, flow cytometry was used to quantify the BiFC signal and reduce the occurrence of false positives. All signal comparisons were made to a negative control providing a baseline for self-assembly. The control was created by deleting 47 amino acids from the leucine zipper-like K-domain of ZMMADSL6, a protein interaction partner of ZMM28 identified from bioinformatics prediction and Y2H experiment. […] Of the 12 tested protein interactions, eight were confirmed via the BiFC assay with almost half the interactions confirmed positive in both BiFC and Y2H assays (Table 2a). Table 2: ZMM28 protein-protein interactions, transcription, direct targets.
(§2) Maize seedlings were germinated and grown in Fafard Super Fine Germination Mix for 6 days in a lighted growth chamber (30° C., 60% RH, 24 h light) and were transferred to a dark growth chamber (30° C., 60% RH, 0 h light) and grown for an additional 4 days to V1. Seedlings were sub-irrigated with deionized water. Maize protoplasts were isolated from these seedlings and were transiently transformed by PEG-mediated transfection as described by Yoo et al.63 with the addition of 0.6 M mannitol in the enzyme, WI, W5 and MMG solutions. Protoplasts were transfected with 10 pmol bait+10 pmol prey plasmid DNA per 3×10^4 cells. Protoplasts were incubated on a 12-well (1 mL WI) plate for 20 hours at RT before samples were analyzed.
(§3) BiFC signals were detected by flow cytometry performed using an Attune™ Flow Cytometer (Thermo Fisher Scientific, Waltham, MA, USA) with a Blue/Violet configuration (488 nm, 20 mW laser and a 405 nm, 50 mW laser).

| Binder | BiFC positive cell count |
| --- | --- |
| B1 | 1010 cells out of 10,000 |

Molecular target: B1
Assay: BiFC, maize protoplasts, flow cytometry
Method: as §1, §2, §3

| Binder | BiFC positive cell count |
| --- | --- |
| B2 | 2330 cells out of 10,000 |
| B3 | 438 cells out of 10,000 |
| B4 | 125 cells out of 10,000 |
| B5 | 2100 cells out of 10,000 |
| B6 | 715 cells out of 10,000 |
| B7 | 4060 cells out of 10,000 |
